Experimental data from patent publication US20110312891A1, “ENAMEL MATRIX DERIVATIVE FRACTION C” (Straumann Holding AG, priority 2008, published 2011).

B1: PTH: PTH peptides compared with EMD on primary osteoblasts (protein, UniProt P01270 32-115, looked up)
Parathyroid hormone: SVSEIQLMHNLGKHLNSMERVEWLRKKLQDVHNFVALGAPLAPRDAGSQRPRKKEDNVLVESHEKSLGEADKADVNVLTKAKSQ
modifications: Parathyroid hormone
notes: PTH peptides compared with EMD on primary osteoblasts
B2: rhAmel: recombinant human amelogenin over-expressed in Escherichia Coli (protein, UniProt Q99217 17-191, looked up)
Amelogenin, X isoform: MPLPPHPGHPGYINFSYEVLTPLKWYQSIRPPYPSYGYEPMGGWLHHQIIPVLSQQHPPTHTLQPHHHIPVVPAQQPVIPQQPMMPVPGQHSMTPIQHHQPNLPPPAQQPYQPQPVQPQPHQPMQPQPPVHPMQPLPPQPPLPPMFPMQPLPPMLPDLTLEAWPSTDKTKREEVD

Columns and labels:
osteoblasts = experiment: Effect of fraction C, its isoforms and synthetic amelogenin peptides on bone markers in osteoblasts; type: cell-based; conditions: for LDH activity in the culture medium: compared with fraction C and the mix of peptides (3113), slightly more toxic effect
Procedure: We have tested synthetic peptides of amelogenin (exon1, 3 and 5) of various lengths.
Fraction C, having a molecular weight of 5250.4 g/mol was used at a final concentration of 5 μg/ml (0.9 μmol/L). The peptides were used in a molar concentration similar to fraction C. WBRA001 enhanced osteocalcin and CD44 expression and secretion similar to fraction C, the smaller peptides had no effect on the bone markers in osteoblasts. 5 kDa amelogenins, isolated from EMD batch 3113 was identified to contain both; C1RP or C2RP (1-43 and 1-45 TRAP), whereas the fraction C isolated from EMD batch 9121 contains not only C1RP and C2R (1-43 and 1-45 TRAP), but 2 further, unidentified minor peaks. The effect of the different isoforms on expression of bone markers was tested on osteoblasts.

MG63 cells = experiment: WST-1 cell proliferation and viability assay; type: cell-based, human; conditions: 1 μg/mL; after 7 days; compared to the negative control
Procedure: Minimum Essential Medium Eagle (MEM)+10% Fetal calf serum +1% Penicilin-Streptomycin (×100)+1% Non Essential Amino Acid Solution (×100)+1% L-Glutamine (200 mM) Seeding density MG63 cells in passage 4 were seeded with a density of 10,000 cells/cm2 on 96 wells culture plates. Sampling was performed after 24 hours and 7 days in vitro.
Furthermore, the proliferation reagent WST-1 test was performed to assess cell proliferation and viability. WST-1 solution was added in a final solution of 1:10 to the monolayer culture and cells were incubated at 37° C. for a further 1 hour. The absorbance of the supernatants was measured spectrophotometrically using VersaMax micro plate reader (Molecular Devices, California, USA) at 420 nm-480 nm with a reference wavelength of 600 nm. Results are reported as optical density (OD).

primary osteoblasts = experiment: Affymetrix gene chip analysis of primary osteoblasts, EMD versus PTH; type: cell-based, human; conditions: 24 h after stimulation; cells of two donors
Procedure: Commercially available primary human osteoblasts from both femur and tibia of different donors (NHOst cell system; Cambrex, Walkersville, Md., USA) were grown in osteoblast growth media (OGM, Cambrex). Cultured osteoblasts were exposed to hydrocortisone hemisuccinate (200 nM) and h-glycerophosphate (10 mM) (Cambrex) in ambient medium to facilitate mineralization. The phenotype of cells was characterized based on the expression levels of alkaline phosphatase (ALP), collagen type 1, osteocalcin, and CD44 (late differentiation marker), and formation of mineralization nodules.
Primary osteoblasts were cultured in T75 culture flasks and cultured after treatment for 24 h, 72 h or 7d respectively and lysed in 7 ml Trizol solution (Gibco, USA). Trizol lysates were kept at −70° C. until RNA isolation according to the manufacturer's protocols and further processing (Dep. of Medical Biochemistry, Oslo University, Norway). Double stranded cDNA and biotin labeled cRNA probes were made from 5 μg total RNA using the Superscript Choice system (Invitrogen) and the Enzo Bioarray respectively. Procedures were according to recommendations from Affymetrix. […]
To compare the effects of PTH peptides and EMD on primary osteoblasts, cells of two donors were treated synchronously and expression patterns were analysed by affymetrix gene chip analysis. […]

[1] = system: MG63 human osteoblast-like cells; experiment: Osteoblast differentiation in confluent MG63 cultures treated for 24 hours (DNA, ALP, osteocalcin, OPG, VEGF, FGF-2); type: cell-based
Procedure: Methods: Confluent cultures of MG63 human osteoblast-like cells and normal human osteoblasts were treated with or without EMD, recombinant human amelogenin (rhAmel), Fraction A (0.01-100 μg/ml) or Fraction C (0.1-250 μg/ml) for 24 hours. Effects on DNA content and alkaline phosphatase specific activity (ALP), and osteocalcin (OCN), osteoprotegerin (OPG), vascular endothelial growth factor A (VEGF-A) and fibroblast growth factor-2 (FGF-2) levels in the conditioned media were determined.
MG63 osteoblast-like cells, originally isolated from a human osteosarcoma, were obtained from the American Type Culture Collection (Rockville, Md.). […]
MG63 Cells were cultured in Dulbecco's modified Eagle medium (DMEM) containing 10% fetal bovine serum (FBS) and 1% penicillin and streptomycin at 37° C. in an atmosphere of 5% CO2 and 100% humidity. […] The levels of osteocalcin in the conditioned media were measured using a commercially available radioimmunoassay kit (Human Osteocalcin RIA Kit, Biomedical Technologies, Stoughton, Mass.) and normalized to DNA content. […] Osteoprotegerin was measured using enzyme-linked immunosorbent assay (ELISA) kit (DY805 Osteoprotegerin DuoSet, R&D Systems, Minneapolis, Minn.). VEGF was assesseds using an ELISA kit (RnD Systems). […] The absorbance of the samples was read using a microplate reader and the results analyzed using a standard curve. […]

Row | Molecule | LDH activity in the culture medium (osteoblasts) | cell viability and proliferation (WST-1) (MG63 cells) | also measured
1 | C1RP: Peak 1 of Frac C; SEQ.ID.NO: 1, 43AA form MPLPPHPGHPGYINFSYEVLTPLKWYQNMIRHP-YTSYGYEPMG (MPLPPHPGHPGYINFXYEVLTPLKWYQNMIRHPYTSYGYEPMG; MOD_RES (16)..(16) Ser or Glu, wherein Ser is optionally phosphorylated; listed as Sus scrofa) [Fraction C1RP] | higher LDH activity | clear effect | 
2 | C2RP: Peak 2 of Frac C; SEQ.ID.NO: 2, 45AA form MPLPPHPGHPGYINFSYEVLTPLKWYQNMIRHP-YTSYGYEPMGGW (MPLPPHPGHPGYINFXYEVLTPLKWYQNMIRHPYTSYGYEPMGGW; MOD_RES (16)..(16) Ser or Glu, wherein Ser is optionally phosphorylated; listed as Sus scrofa) [Fraction C2RP] | higher LDH activity | clear effect | 
3 | MPLPP HPGHPGYINFSYEVLTPLKWYQSIRPP-OH [WBRA001] |  |  | osteocalcin and CD44 expression and secretion (osteoblasts; molar concentration similar to fraction C, 5 μg/ml (0.9 μmol/L)): enhanced
4 | B1 |  |  | genes more than 2-fold changed in the same direction with both EMD and PTH from non-treated controls (primary osteoblasts): 254 genes
5 | B2 |  |  | concentration of maximal increases in osteocalcin ([1]; FIG. 4): 1 µg/mL; osteocalcin production (dose response) ([1]; FIG. 4, N=6 cultures per variable, p<0.05 v. control): biphasic increase
